Experimental data reported in paper PMC3427744.
pKd: −log10 of the molar value.

What was measured:
[1] = target: commercial rituximab; assay: SPR
[2] = target: non-fucosylated G2 glycoform of rituximab (10); assay: SPR

| pKd [1] | pKd [2] | Substance |
| --- | --- | --- |
| 5.98 | 6.91 | FcγRIIIa-F158 (from UniProt P08637 17-254) (receptor) |
| 5.70 |  | FcγRIIb (from UniProt P31994 43-310) (receptor) |
